Laboratory results published in patent US20220033501A1 (SHANGHAI PHARMAEXPLORER, published 2022).

T1: monkey TIM-3 extracellular domain protein with hFc tag (cTIM-3-hFc) (monkey)
T1 construct: not shown: human IgG Fc fragment (hFc) of the pCpC vector
T1 chain: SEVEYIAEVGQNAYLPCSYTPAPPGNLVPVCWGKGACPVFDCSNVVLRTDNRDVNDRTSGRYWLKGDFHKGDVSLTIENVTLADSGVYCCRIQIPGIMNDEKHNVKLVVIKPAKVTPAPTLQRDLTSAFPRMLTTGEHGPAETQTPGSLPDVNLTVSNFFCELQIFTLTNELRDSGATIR

T2: monkey TIM-3 on CHOK1 stable cell line (CHOK1-cTIM-3) (monkey)
T2 chain: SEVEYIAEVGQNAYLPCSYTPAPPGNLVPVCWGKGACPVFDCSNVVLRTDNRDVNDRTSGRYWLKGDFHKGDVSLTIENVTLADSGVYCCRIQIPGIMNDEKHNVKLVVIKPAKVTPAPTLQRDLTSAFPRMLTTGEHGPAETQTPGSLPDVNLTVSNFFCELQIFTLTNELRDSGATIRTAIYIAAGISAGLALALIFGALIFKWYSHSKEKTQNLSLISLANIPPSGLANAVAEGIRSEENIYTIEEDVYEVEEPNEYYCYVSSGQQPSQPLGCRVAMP

T3: human TIM-3 extracellular domain protein with hFc tag (hTIM-3-hFc) (human, UniProt Q8TDQ0 22-200)
T3 construct: not shown: human IgG Fc fragment (hFc) of the pCpC vector
T3 sequence: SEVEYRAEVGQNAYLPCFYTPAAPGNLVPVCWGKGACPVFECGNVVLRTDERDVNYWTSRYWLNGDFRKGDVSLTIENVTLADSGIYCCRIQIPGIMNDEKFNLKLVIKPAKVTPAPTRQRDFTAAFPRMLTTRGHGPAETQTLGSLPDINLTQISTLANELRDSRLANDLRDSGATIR


What was measured:
[1] = target: T1, monkey TIM-3 extracellular domain …; test: ELISA, coated monkey TIM-3 ECD protein, 6.6667 nM antibody
[2] = target: T2, monkey TIM-3 on CHOK1 stable cell line …; test: FACS, CHOK1-cTIM-3 cells, 40 nM antibody
[3] = target: T1, monkey TIM-3 extracellular domain …; test: ELISA, coated monkey TIM-3 ECD protein, 0.0007 nM antibody
[4] = target: T3, human TIM-3 extracellular domain …; test: ELISA, coated human TIM-3 ECD protein, 6.6667 nM antibody
[5] = target: T1, monkey TIM-3 extracellular domain …; test: ELISA, coated monkey TIM-3 ECD protein, 0 nM antibody

Row | OD450 [1] | Mean fluorescence intensity [2] | OD450 [3] | OD450 [4] | OD450 [5] | Binder
1 | 3.3 | 462 | 0.15 | 2.61 | 0.13 | 18D2H2 fully human TIM-3 antibody (human IgG4, kappa) (antibody, V domains shown) VH: EVQLVESGGDLVQPGGSLRLSCAASGFTFSTYWMTWVRQAPGRGLEWVANIKQDGSAKYYVDSVKGRFTLSRDDAKNSLYLQMNSLRAEDTAVYYCARGSNWFDYWGQGTLVTVSS VL: ETVMTQSPATLSVSPGERATLSCRANQNVYSNLAWYQQKPGQAPRLLIYDASTRATGFPARFSGSGSGTEFTLTISSLQSEDFAVYYCQQYNNWPLTFGGGTKVEIK
2 | 3.35 | 337 | 0.18 | 2.95 | 0.16 | 39E5H1 fully human TIM-3 antibody (human IgG4, kappa) (antibody, V domains shown) VH: EVQLVESGGGLVQPGGSLRLSCAASGFTFSSYWMSWVRQAPGKGLEWVANIKRGGSERYYVDSVKGRFTISGDNAKNSVYLQMNSLRAEDTAVYYCARGSNWFDPWGQGTLVTVSS VL: ETVMTQSPAILSVSPGERATLSCRASQSVYSNLAWYQQKLGQAPRLLIYDASTRATGIPARFSGSGSGTEFTLTISSLQSEDFAVYYCQQYNNWPITFGQGTRLEIK
3 | 3.39 | 336 | 0.19 | 2.99 | 0.17 | 34B6D8 fully human TIM-3 antibody (human IgG4, kappa) (antibody, V domains shown) VH: EVQLVESGGGLVQPGGSLRLSCAASGFTFSTYWMTWVRQAPGKRLEWVANIKQGGGDKYYVDSVKGRFTISTDNAKNSLYLQMNSLRAEDTAVYYCARGSNWFDPWGQGTLVTVSS VL: EIVMTQSPATLSMSPGERATLSCRASQSVYDNLAWYQQKPGQAPRLLIYGASTRATGIPARFSGSGSGTEFTLTISSLQSEDFALYYCQQYTHWPITFGQGTRLEIK
